Results published in US20250134962A1 (published 2025).
Read-outs that look alike come from different tables or passages of the source.

Assays:
GPC3 [1] = target: T1, GPC3 (UniProt P51654 25-554); assay: flow cytometry; HepG2 cells
GPC3 [2] = target: T1, GPC3; assay: flow cytometry; HepG2 cells; remark: listed apart in the source

EC50 (GPC3 [1]): 0.529 nM
EC50 (GPC3 [2]): 0.529 nM
B1: Codrituzumab (antibody, V domains shown)
VH: QVQLVQSGAEVKKPGASVKVSCKASGYTFTDYEMHWVRQAPGQGLEWMGALDPKTGDTAYSQKFKGRVTLTADKSTSTAYMELSSLTSEDTAVYYCTRFYSYTYWGQGTLVTVSS
VL: DVVMTQSPLSLPVTPGEPASISCRSSQSLVHSNRNTYLHWYLQKPGQSPQLLIYKVSNRFSGVPDRFSGSGSGTDFTLKISRVEAEDVGVYYCSQNTHVPPTFGQGTKLEIKR
